Bridges are numbered along the chain shown (N, C = ends). Where no end group is shown, it is not given here. [ ]: non-standard residue; d: D form. MPEG5000 = polyethyleneglycol of 5000 molecular weight, attached to the N-terminal Cys; dPen = CC(C)(S)[C@@H](N)C(=O)O
Target: T1, integrin α4β1 (human, UniProt P13612 34-1032; P05556 21-798)
T1 construct: whole, on cells; also called VLA-4; very late antigen-4
Assay: inhibition of HL-60 cell (α4β1) binding to VCAM-IgG coated beads, fluorimetry
Procedure: The media was collected and active protein was purified by immunoprecipitation using Dynal magnetic polystyrene beads coated with goat anti-mouse IgG. Following immunoprecipitation, the beads bound cells that expressed the integrin α_4β_1 such as Ramos and HL-60.
HL-60 cells were fluorescently labeled with Calcein AM C-3099 (Molecular Probes) and resuspended in 1 ml of binding buffer (Hank's balanced salt solution, pH 7.4, 1.0 mM CaCl_2, 1.0 mM MgCl_2). The beads (10 µl, 4×10^6 beads/ml) were placed in wells of a 96-well microtiter dish with 10 µl of peptide at various concentrations. The beads were incubated with 10 µl of labeled cells (10^7 cells/ml) for 10 min at room temperature. Following immobilization of the beads onto the plastic with a magnet, unbound cells were removed by washing three times with binding buffer. The remaining bound cells were lysed in 50 mM Tris, pH 7.4, 5.0 mM EDTA, 1.0% NP-40 and quantitated by fluorimetry using a Millipore Cytofluor 2350 fluorimeter. Dose response curves were calculated and IC$50$ values determined. Alternatively, the percent adhesion was determined at a single peptide concentration for comparison among peptides.

T1 sequence (P13612 34-1032, chain 1 of 2): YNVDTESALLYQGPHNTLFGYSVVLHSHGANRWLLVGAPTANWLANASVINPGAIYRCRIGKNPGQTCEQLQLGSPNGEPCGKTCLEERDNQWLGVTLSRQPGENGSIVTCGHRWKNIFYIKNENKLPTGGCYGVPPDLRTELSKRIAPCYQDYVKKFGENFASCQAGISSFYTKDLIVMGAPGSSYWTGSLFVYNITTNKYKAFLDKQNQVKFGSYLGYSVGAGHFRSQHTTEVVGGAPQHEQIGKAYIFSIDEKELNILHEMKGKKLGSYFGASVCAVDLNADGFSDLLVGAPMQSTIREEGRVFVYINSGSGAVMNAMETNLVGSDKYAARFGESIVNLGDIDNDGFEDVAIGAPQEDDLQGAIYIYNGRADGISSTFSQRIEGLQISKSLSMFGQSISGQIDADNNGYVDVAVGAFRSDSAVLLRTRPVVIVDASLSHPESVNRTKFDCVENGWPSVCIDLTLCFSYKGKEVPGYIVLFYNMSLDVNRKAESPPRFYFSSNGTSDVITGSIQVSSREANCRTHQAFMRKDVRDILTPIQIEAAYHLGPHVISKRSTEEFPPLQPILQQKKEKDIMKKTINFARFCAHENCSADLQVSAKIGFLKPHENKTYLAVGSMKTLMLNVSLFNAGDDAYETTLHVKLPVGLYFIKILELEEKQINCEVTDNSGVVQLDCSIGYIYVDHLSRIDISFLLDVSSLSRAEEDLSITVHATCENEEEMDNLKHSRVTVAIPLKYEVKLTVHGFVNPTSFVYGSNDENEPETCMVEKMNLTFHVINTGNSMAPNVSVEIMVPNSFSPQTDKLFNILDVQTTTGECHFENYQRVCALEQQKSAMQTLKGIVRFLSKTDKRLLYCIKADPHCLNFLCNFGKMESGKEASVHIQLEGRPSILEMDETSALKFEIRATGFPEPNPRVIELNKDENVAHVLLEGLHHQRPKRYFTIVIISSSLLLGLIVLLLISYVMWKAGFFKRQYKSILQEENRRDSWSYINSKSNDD
T1 sequence (P05556 21-798, chain 2 of 2): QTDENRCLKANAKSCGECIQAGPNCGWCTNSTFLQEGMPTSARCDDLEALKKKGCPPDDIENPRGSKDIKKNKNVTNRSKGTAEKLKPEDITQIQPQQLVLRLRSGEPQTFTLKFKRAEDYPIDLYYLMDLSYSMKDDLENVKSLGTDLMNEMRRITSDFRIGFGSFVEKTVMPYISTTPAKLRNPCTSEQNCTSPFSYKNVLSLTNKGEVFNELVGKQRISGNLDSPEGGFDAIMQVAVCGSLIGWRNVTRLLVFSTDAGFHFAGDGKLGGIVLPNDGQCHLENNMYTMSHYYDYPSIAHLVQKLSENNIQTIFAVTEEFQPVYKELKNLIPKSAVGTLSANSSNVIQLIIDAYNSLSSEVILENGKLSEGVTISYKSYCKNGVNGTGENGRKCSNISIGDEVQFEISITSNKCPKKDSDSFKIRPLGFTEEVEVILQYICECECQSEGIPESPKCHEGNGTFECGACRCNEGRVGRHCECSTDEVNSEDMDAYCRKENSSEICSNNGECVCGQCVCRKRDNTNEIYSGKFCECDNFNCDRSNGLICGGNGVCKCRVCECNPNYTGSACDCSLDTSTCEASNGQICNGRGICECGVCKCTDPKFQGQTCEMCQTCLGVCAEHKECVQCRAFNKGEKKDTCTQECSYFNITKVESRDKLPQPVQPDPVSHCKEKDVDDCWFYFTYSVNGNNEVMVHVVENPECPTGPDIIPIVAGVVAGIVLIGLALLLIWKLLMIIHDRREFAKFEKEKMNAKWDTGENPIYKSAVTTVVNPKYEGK

Binder | peptide concentration that significantly inhibits binding [µM]
CSWLDVC (disulfide 1-7, Disulfide cyclic peptide; also called Cys-Ser-Trp-Leu-Asp-Val-Cys) [SEQ ID NO 16] | < 10
C[dW]LDVC-OH (disulfide 1-6; N-terminus assumed; SMILES CC(C)C[C@@H]1NC(=O)[C@@H](Cc2c[nH]c3ccccc23)NC(=O)[C@@H](N)CSSC[C@@H](C(=O)O)NC(=O)[C@H](C(C)C)NC(=O)[C@H](CC(=O)O)NC1=O, Disulfide cyclic peptide; also called Cys-dTrp-Leu-Asp-Val-Cys-acid) [SEQ ID NO 17] | < 10
Ac-CWLDVC-OH (disulfide 1-6; SMILES CC(=O)N[C@H]1CSSC[C@@H](C(=O)O)NC(=O)[C@H](C(C)C)NC(=O)[C@H](CC(=O)O)NC(=O)[C@H](CC(C)C)NC(=O)[C@H](Cc2c[nH]c3ccccc23)NC1=O, Disulfide cyclic peptide; also called Ac-Cys-Trp-Leu-Asp-Val-Cys-acid) [SEQ ID NO 18] | < 10
CYLDVC-OH (disulfide 1-6; N-terminus assumed; SMILES CC(C)C[C@@H]1NC(=O)[C@H](Cc2ccc(O)cc2)NC(=O)[C@@H](N)CSSC[C@@H](C(=O)O)NC(=O)[C@H](C(C)C)NC(=O)[C@H](CC(=O)O)NC1=O, Disulfide cyclic peptide; also called Cys-Tyr-Leu-Asp-Val-Cys-acid) [SEQ ID NO 19] | < 10
CWLDFC-OH (disulfide 1-6; N-terminus assumed; SMILES CC(C)C[C@@H]1NC(=O)[C@H](Cc2c[nH]c3ccccc23)NC(=O)[C@@H](N)CSSC[C@@H](C(=O)O)NC(=O)[C@H](Cc2ccccc2)NC(=O)[C@H](CC(=O)O)NC1=O, Disulfide cyclic peptide; also called Cys-Trp-Leu-Asp-Phe-Cys-acid) [SEQ ID NO 20] | < 10
CFLDVC-OH (disulfide 1-6; N-terminus assumed; SMILES CC(C)C[C@@H]1NC(=O)[C@H](Cc2ccccc2)NC(=O)[C@@H](N)CSSC[C@@H](C(=O)O)NC(=O)[C@H](C(C)C)NC(=O)[C@H](CC(=O)O)NC1=O, Disulfide cyclic peptide; also called Cys-Phe-Leu-Asp-Val-Cys-acid) [SEQ ID NO 21] | < 10
CWLDWC-OH (disulfide 1-6; N-terminus assumed; SMILES CC(C)C[C@@H]1NC(=O)[C@H](Cc2c[nH]c3ccccc23)NC(=O)[C@@H](N)CSSC[C@@H](C(=O)O)NC(=O)[C@H](Cc2c[nH]c3ccccc23)NC(=O)[C@H](CC(=O)O)NC1=O, Disulfide cyclic peptide; also called Cys-Trp-Leu-Asp-Trp-Cys-acid) [SEQ ID NO 22] | < 10
CWIDVC-OH (disulfide 1-6; N-terminus assumed; SMILES CC[C@H](C)[C@@H]1NC(=O)[C@H](Cc2c[nH]c3ccccc23)NC(=O)[C@@H](N)CSSC[C@@H](C(=O)O)NC(=O)[C@H](C(C)C)NC(=O)[C@H](CC(=O)O)NC1=O, Disulfide cyclic peptide; also called Cys-Trp-Ile-Asp-Val-Cys-acid) [SEQ ID NO 23] | < 10
CWMDVC-OH (disulfide 1-6; N-terminus assumed; SMILES CSCC[C@@H]1NC(=O)[C@H](Cc2c[nH]c3ccccc23)NC(=O)[C@@H](N)CSSC[C@@H](C(=O)O)NC(=O)[C@H](C(C)C)NC(=O)[C@H](CC(=O)O)NC1=O, Disulfide cyclic peptide; also called Cys-Trp-Met-Asp-Val-Cys-acid) [SEQ ID NO 24] | < 10
CWVDVC-OH (disulfide 1-6; N-terminus assumed; SMILES CC(C)[C@@H]1NC(=O)[C@H](CC(=O)O)NC(=O)[C@H](C(C)C)NC(=O)[C@H](Cc2c[nH]c3ccccc23)NC(=O)[C@@H](N)CSSC[C@@H](C(=O)O)NC1=O, Disulfide cyclic peptide; also called Cys-Trp-Val-Asp-Val-Cys-acid) [SEQ ID NO 25] | < 10
CWKDVC-OH (disulfide 1-6; N-terminus assumed; SMILES CC(C)[C@@H]1NC(=O)[C@H](CC(=O)O)NC(=O)[C@H](CCCCN)NC(=O)[C@H](Cc2c[nH]c3ccccc23)NC(=O)[C@@H](N)CSSC[C@@H](C(=O)O)NC1=O, Disulfide cyclic peptide; also called Cys-Trp-Lys-Asp-Val-Cys-acid) [SEQ ID NO 26] | < 10
CWLDLC-OH (disulfide 1-6; N-terminus assumed; SMILES CC(C)C[C@@H]1NC(=O)[C@H](CC(=O)O)NC(=O)[C@H](CC(C)C)NC(=O)[C@H](Cc2c[nH]c3ccccc23)NC(=O)[C@@H](N)CSSC[C@@H](C(=O)O)NC1=O, Disulfide cyclic peptide; also called Cys-Trp-Leu-Asp-Leu-Cys-acid) [SEQ ID NO 28] | < 10
CWLDYC-OH (disulfide 1-6; N-terminus assumed; SMILES CC(C)C[C@@H]1NC(=O)[C@H](Cc2c[nH]c3ccccc23)NC(=O)[C@@H](N)CSSC[C@@H](C(=O)O)NC(=O)[C@H](Cc2ccc(O)cc2)NC(=O)[C@H](CC(=O)O)NC1=O, Disulfide cyclic peptide; also called Cys-Trp-Leu-Asp-Tyr-Cys-acid) [SEQ ID NO 29] | < 10
CWLDVC-OH (disulfide 1-6; N-terminus assumed; SMILES CC(C)C[C@@H]1NC(=O)[C@H](Cc2c[nH]c3ccccc23)NC(=O)[C@@H](N)CSSC[C@@H](C(=O)O)NC(=O)[C@H](C(C)C)NC(=O)[C@H](CC(=O)O)NC1=O, Disulfide cyclic peptide; also called Cys-Trp-Leu-Asp-Val-Cys-acid) [SEQ ID NO 31] | < 10
[dC]WLDVC-OH (disulfide 1-6; N-terminus assumed; SMILES CC(C)C[C@@H]1NC(=O)[C@H](Cc2c[nH]c3ccccc23)NC(=O)[C@H](N)CSSC[C@@H](C(=O)O)NC(=O)[C@H](C(C)C)NC(=O)[C@H](CC(=O)O)NC1=O, Disulfide cyclic peptide; also called dCys-Trp-Leu-Asp-Val-Cys-acid) [SEQ ID NO 32] | < 10
CEWLDYC-OH (disulfide 1-7; N-terminus assumed; SMILES CC(C)C[C@@H]1NC(=O)[C@H](Cc2c[nH]c3ccccc23)NC(=O)[C@H](CCC(=O)O)NC(=O)[C@@H](N)CSSC[C@@H](C(=O)O)NC(=O)[C@H](Cc2ccc(O)cc2)NC(=O)[C@H](CC(=O)O)NC1=O, Disulfide cyclic peptide; also called Cys-Glu-Trp-Leu-Asp-Tyr-Cys-acid) [SEQ ID NO 36] | < 10
CEWLDVC-NH2 (disulfide 1-7; N-terminus assumed; SMILES CC(C)C[C@@H]1NC(=O)[C@H](Cc2c[nH]c3ccccc23)NC(=O)[C@H](CCC(=O)O)NC(=O)[C@@H](N)CSSC[C@@H](C(N)=O)NC(=O)[C@H](C(C)C)NC(=O)[C@H](CC(=O)O)NC1=O, Disulfide cyclic peptide; also called Cys-Glu-Trp-Leu-Asp-Val-Cys-amide) [SEQ ID NO 33] | < 10
CEWLDVC-OH (disulfide 1-7; N-terminus assumed; SMILES CC(C)C[C@@H]1NC(=O)[C@H](Cc2c[nH]c3ccccc23)NC(=O)[C@H](CCC(=O)O)NC(=O)[C@@H](N)CSSC[C@@H](C(=O)O)NC(=O)[C@H](C(C)C)NC(=O)[C@H](CC(=O)O)NC1=O, Disulfide cyclic peptide; also called Cys-Glu-Trp-Leu-Asp-Val-Cys-acid) [SEQ ID NO 34] | < 10
CSFLDYC-OH (disulfide 1-7; N-terminus assumed; SMILES CC(C)C[C@@H]1NC(=O)[C@H](Cc2ccccc2)NC(=O)[C@H](CO)NC(=O)[C@@H](N)CSSC[C@@H](C(=O)O)NC(=O)[C@H](Cc2ccc(O)cc2)NC(=O)[C@H](CC(=O)O)NC1=O, Disulfide cyclic peptide; also called Cys-Ser-Phe-Leu-Asp-Tyr-Cys-acid) [SEQ ID NO 37] | < 10
CEFLDYC-OH (disulfide 1-7; N-terminus assumed; SMILES CC(C)C[C@@H]1NC(=O)[C@H](Cc2ccccc2)NC(=O)[C@H](CCC(=O)O)NC(=O)[C@@H](N)CSSC[C@@H](C(=O)O)NC(=O)[C@H](Cc2ccc(O)cc2)NC(=O)[C@H](CC(=O)O)NC1=O, Disulfide cyclic peptide; also called Cys-Glu-Phe-Leu-Asp-Tyr-Cys-acid) [SEQ ID NO 38] | < 10
[dC]EWLDVC-OH (disulfide 1-7; N-terminus assumed; SMILES CC(C)C[C@@H]1NC(=O)[C@H](Cc2c[nH]c3ccccc23)NC(=O)[C@H](CCC(=O)O)NC(=O)[C@H](N)CSSC[C@@H](C(=O)O)NC(=O)[C@H](C(C)C)NC(=O)[C@H](CC(=O)O)NC1=O, Disulfide cyclic peptide; also called dCys-Glu-Trp-Leu-Asp-Val-Cys-acid) [SEQ ID NO 35] | < 10
cyclo(EWLDVD) (not fully specified (residue 3), Head-to-tail cyclic lactam; also called Glu-Trp-Leu-Asp-Val-Asp) [SEQ ID NO 3] | < 10
CPEWLDVC-OH (disulfide 1-8; N-terminus assumed; SMILES CC(C)C[C@@H]1NC(=O)[C@H](Cc2c[nH]c3ccccc23)NC(=O)[C@H](CCC(=O)O)NC(=O)[C@@H]2CCCN2C(=O)[C@@H](N)CSSC[C@@H](C(=O)O)NC(=O)[C@H](C(C)C)NC(=O)[C@H](CC(=O)O)NC1=O, Disulfide cyclic peptide) [SEQ ID NO 40] | < 10
MPEG5000-CWLDVC-OH (disulfide 1-6, Disulfide cyclic peptide; also called MPEG5000-Cys-Trp-Leu-Asp-Val-Cys-acid) [SEQ ID NO 41] | < 10
[dPen]WLDVC-OH (disulfide 1-6; N-terminus assumed; SMILES CC(C)C[C@@H]1NC(=O)[C@H](Cc2c[nH]c3ccccc23)NC(=O)[C@H](N)C(C)(C)SSC[C@@H](C(=O)O)NC(=O)[C@H](C(C)C)NC(=O)[C@H](CC(=O)O)NC1=O, Disulfide cyclic peptide; also called dPen-Trp-Leu-Asp-Val-Cys-acid) [SEQ ID NO 42] | < 10

Reference: patent US6713604 (TEXAS BIOTECHNOLOGY, dated 2004)
